For assay [1], the target named is human IgG antibody (manufactured by Lampire Biological Laboratories) (human). As to the kind of experiment: column breakthrough binding capacity of human IgG, protein A on crosslinked agarose, 150 cm/hr.
Assay [2] has the same target. The experiment in a line: column breakthrough binding capacity of human IgG, protein A on crosslinked agarose, 500 cm/hr.

This note sets out measurements from patent US20110262748A1.

Turning to “protein A immobilized on crosslinked agarose (MabSelect Xtra, GE Healthcare Biosciences) (from UniProt P38507 37-327)”, the binding capacity in assay [1] was 25 mg/mL; in assay [2], 12 mg/mL.
